Experiment [1] addresses mouse EGFR (cell surface) (mouse) (UniProt Q01279). Description: FACS binding to mouse EGFR cells; the table head prints W562.CHOK1.cPro1.H6. A general note: Flow cytometry measures light scatter and fluorescence of single cells or particles in a stream.
For experiment [2] the target is unchanged. Description: FACS binding to W562-CHO-K1.mPro1.F3 cells (mouse EGFR), lower panel and table; the curve is still rising at 100 nM.
Experiment [3] addresses Macaca fascicularis EGFR (cell surface) (Macaca fascicularis). Description: FACS binding to W562.CHOK1.cPro1.H6 cells (monkey EGFR), upper panel and table.
The target is the same in experiment [4]. In words: FACS binding to W562-CHO-K1.cPro1.H6 cells (monkey EGFR), lower panel and table.
Experiment [5] concerns the target mouse EGFR (cell surface) (mouse) (UniProt Q01279). In words: FACS binding to W562-CHO-K1.mPro1.F3 cells (mouse EGFR), lower panel and table.

The results in this text go back to patent US20210115146A1.

B1: W562-BMK3 (antibody, from another filing, human IgG1, V domains shown)
VH: QVQLQESGPGLVKPSETLSLTCTVSGLSLASNSVSWIRQPPGKGLEWMGVIWNHGGTDYNPSIKSRLSISRDTSKSQVFLKMNSLTAADTAMYFCVRKGGIYFDYWGQGVLVTVSS
VL: DTVLTQSPSLAVSPGERATISCRASESVSTLMHWYQQKPGQQPKLLIYLASHRESGVPARFSGSGSGTDFTLTIDPMEAEDTATYYCQQSRNDPWTFGQGTKLELKR
Turning to B1, the EC50 (in general, the concentration that produces a half-maximal response) in experiment [1] was 2.42 nM; in experiment [2], 6.41 nM; in experiment [3], 1.47 nM; in experiment [4], 1.24 nM. Also, the Top MFI in experiment [1] is 31000 MFI; in experiment [3], 37500 MFI. The results for the TOP MFI in experiment [4] and in experiment [5] were 16000 MFI and 32800 MFI, respectively.
